Laboratory results as given in patent publication US20060029947A1 (University of Texas, published 2006).

B1: NlpA-[14B7 scFv] (scFv)
scFv: CDQSSSDIQMTQTTSSLSASLGDRVTISCRASQDIRNYLNWYQQKPDGTVKLLIYYTSRLQSGVPSRFSGSGSGTDYSLTISNQEQEDIGTYFCQQGNTLPWTFGGGTKLEIKRGGGGSGGGGSGGGGSGGGGSEVQLQQSGPELVKPGASVKISCKDSGYAFSSSWMNWVKQRPGQGLEWIGRIYPGDGDTNYNGKFKGKATLTADKSSSTAYMQLSSLTSVDSAVYFCARSGLLRYAMDYWGQGTSVTVSS
B2: M18 scAb (scFv)
chain: DIQMTQTTSSLSASLGDRVTVSCRASQDIRNYLNWYQQKPDGTVKFLIYYTSRLQPGVPSRFSGSGSGTDYSLTINNLEQEDIGTYFCQQGNTPPWTFGGGTKLEIKRGGGGSDGGGSGGGGSGGGGSEVQLQQSGPELVKPGASVKISCKDSGYAFNSSWMNWVKQRPGQGLEWIGRIYPGDGDSNYNGKFEGKAILTADKSSSTAYMQLSSLTSVDSAVYFCARSGLLRYAMDYWGQGTSVTVSS
B3: 14B7 scAb (scFv)
chain: DIQMTQTTSSLSASLGDRVTISCRASQDIRNYLNWYQQKPDGTVKLLIYYTSRLQSGVPSRFSGSGSGTDYSLTISNQEQEDIGTYFCQQGNTLPWTFGGGTKLEIKRGGGGSGGGGSGGGGSGGGGSEVQLQQSGPELVKPGASVKISCKDSGYAFSSSWMNWVKQRPGQGLEWIGRIYPGDGDTNYNGKFKGKATLTADKSSSTAYMQLSSLTSVDSAVYFCARSGLLRYAMDYWGQGTSVTVSS

How the values were obtained:
[1] = target: T1, Bacillus anthracis protective antigen (PA) (Bacillus anthracis, UniProt P13423 30-764)
T1 sequence (P13423 30-764 limits assumed): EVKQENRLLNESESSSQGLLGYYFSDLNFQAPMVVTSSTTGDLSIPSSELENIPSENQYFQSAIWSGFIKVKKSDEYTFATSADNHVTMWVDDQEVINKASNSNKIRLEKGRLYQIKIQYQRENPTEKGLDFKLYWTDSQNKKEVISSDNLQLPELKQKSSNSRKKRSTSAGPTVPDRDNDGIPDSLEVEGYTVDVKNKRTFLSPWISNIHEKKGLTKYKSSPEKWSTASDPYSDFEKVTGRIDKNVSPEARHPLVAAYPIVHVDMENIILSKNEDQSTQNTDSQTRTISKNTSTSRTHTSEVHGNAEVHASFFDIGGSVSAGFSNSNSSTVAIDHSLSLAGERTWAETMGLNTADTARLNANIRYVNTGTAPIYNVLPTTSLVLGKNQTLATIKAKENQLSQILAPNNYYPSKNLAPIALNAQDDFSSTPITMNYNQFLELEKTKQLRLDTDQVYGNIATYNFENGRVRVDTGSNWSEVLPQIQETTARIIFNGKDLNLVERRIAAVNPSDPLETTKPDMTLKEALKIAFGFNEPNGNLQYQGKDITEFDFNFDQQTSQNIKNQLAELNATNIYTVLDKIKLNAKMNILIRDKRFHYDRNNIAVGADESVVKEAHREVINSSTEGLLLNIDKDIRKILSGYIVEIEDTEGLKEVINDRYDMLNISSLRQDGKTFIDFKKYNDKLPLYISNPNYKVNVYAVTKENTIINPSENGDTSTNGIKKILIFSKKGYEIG

[2] = target: T1, Bacillus anthracis protective antigen …; test: SPR (BIACore 3000)
[3] = target: T1, Bacillus anthracis protective antigen …; test: SPR (BIACore 3000), PA on CM5 chip, scAb in solution
[4] = target: T1, Bacillus anthracis protective antigen …; test: SPR, purified scAb on immobilized PA ('Affinity Measurements of Purified scAb')
[5] = target: T1, Bacillus anthracis protective antigen …; test: SPR (BIACore 3000), PA on CM5 chip

Row | Binder | fold higher mean fluorescence intensity compared to controls [1] | fold affinity improvement compared to the parental antibody 14B7 [2] | Kd [3] | koff [3] | kon [4] | Kd [5] | koff [4]
1 | B1 | ~9 fold |  |  |  |  |  | 
2 | B2 |  | > 120 fold | 0.035 nM | 4.2e-05 s⁻¹ | 1.2e+06 M⁻¹ s⁻¹ |  | 
3 | B3 |  |  |  |  | 710000 M⁻¹ s⁻¹ | 4.3 nM | 0.003 s⁻¹
